From publication doi:10.1101/2020.12.03.410779

Biological target: human Retromer complex (Vps35-Vps29-Vps26A) (human) (UniProt Q96QK1)
Test: ITC

Substance: TBC domain of human TBC1D5 (from UniProt Q92609 1-795) (domain or fragment)
- Kd: 370 nM
